Substitutions are numbered along the chain they refer to.

T1: VEGF (Example 4) (UniProt P15692 27-191)
T1 chain: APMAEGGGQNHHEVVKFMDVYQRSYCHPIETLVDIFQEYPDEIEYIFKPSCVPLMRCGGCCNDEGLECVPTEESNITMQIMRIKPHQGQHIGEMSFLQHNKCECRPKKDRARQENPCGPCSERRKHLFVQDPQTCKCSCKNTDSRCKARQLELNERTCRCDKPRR

B1: 3 (antibody, V domains shown)
V domain 1: FQPVLHQPPAMSSALGTTIRLTCTLRNDHDIGVYSVYWYQQRPGHPPRFLLRYFSQSDKSQGPQVPPRFSGSKDVARNRGYLSISELQPEDEAMYYCAMGARSSVTHVFGSGTQLTVLS
V domain 2: QPVLHQPPAMSSALGTTIRLTCTLRNDHDIGVYSVYWYQQRPGHPPRFLLRYFSQSDKSQGPQVPPRFSGSKDVARNRGYLSISELQPEDEAMYYCAMGARSSVTHVFGSGTQLTVLS
B2: 7 (antibody, V domains shown)
V domain 1: B1 V domain 1 with F1P
V domain 2: B1 V domain 2
B3: 4 (antibody, V domains shown)
V domain 1: B1 V domain 1
V domain 2: B1 V domain 2
B4: 6 (antibody, V domains shown)
V domain 1: B1 V domain 1 with F1P
V domain 2: B1 V domain 2

The first assay has as its target T1, VEGF (Example 4). In words: VEGF-KDR inhibition.
Take B1: the IC50 came to 429 pM.

As to B2, the IC50 is 362 pM.

Take B3: inhibition was half-maximal at 449 pM (IC50).

Take B4: the IC50 was 589 pM.

In the next assay the target is ErbB3 (UniProt P21860 20-643). In words: binding.
Chain of ErbB3 (P21860 20-643): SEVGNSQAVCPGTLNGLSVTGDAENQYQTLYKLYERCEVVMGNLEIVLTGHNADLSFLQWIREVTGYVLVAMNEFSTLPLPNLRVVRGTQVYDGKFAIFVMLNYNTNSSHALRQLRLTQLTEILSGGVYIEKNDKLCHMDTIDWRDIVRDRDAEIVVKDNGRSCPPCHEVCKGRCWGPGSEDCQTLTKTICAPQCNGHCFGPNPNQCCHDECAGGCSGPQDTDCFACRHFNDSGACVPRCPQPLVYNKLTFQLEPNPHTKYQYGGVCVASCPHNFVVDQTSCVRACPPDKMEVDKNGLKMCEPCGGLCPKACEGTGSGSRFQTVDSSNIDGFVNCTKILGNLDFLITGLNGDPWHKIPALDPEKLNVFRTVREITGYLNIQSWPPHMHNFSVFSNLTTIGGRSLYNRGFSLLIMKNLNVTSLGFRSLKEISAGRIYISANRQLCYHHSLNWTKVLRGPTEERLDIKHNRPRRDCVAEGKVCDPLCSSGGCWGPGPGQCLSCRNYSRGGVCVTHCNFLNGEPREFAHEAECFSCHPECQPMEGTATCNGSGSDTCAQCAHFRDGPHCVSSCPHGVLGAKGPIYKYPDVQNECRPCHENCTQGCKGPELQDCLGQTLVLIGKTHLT
Turning to B1, it took 50 pM to reach a half-maximal effect (EC50).

On to B2, for which the EC50 came to 37 pM.

As for B3, a half-maximal response (EC50) required 46 pM.

B4 came in with an EC50 of 48 pM.

For the next assay, the target named is T1, VEGF (Example 4). In words: binding.
Molecule B1 displayed an EC50 of 15 pM.

B2 returned an EC50 of 13 pM.

Molecule B3 gave a 50% effective concentration (EC50) of 15 pM.

Turning to B4, the EC50 was 12 pM.

The term IC50 denotes the midpoint of a concentration-inhibition curve. Low values mean higher potency, high ones lower potency. For orientation: EC50 means the concentration giving half of the maximal effect.

The record behind these values is patent US20150045540A1 (published 2015).
